Key:
[1] = target: dimerization domain of ZEN-4 (residues 530 to 601) (C. elegans); experiment: crystal structure
[2] = target: NTD and CC region of CYK-4 (residues 1 to 120) (C. elegans); experiment: crystal structure

Substance | stoichiometry N [1] | stoichiometry N [2]
dimerization domain of ZEN-4 (residues 530 to 601) (domain or fragment) | 2 | –
NTD and CC region of CYK-4 (residues 1 to 120) (domain or fragment) | – | 2

Source: PMC8501884
